Results taken from US20240091260A1.

Molecular target: PRAME … (ALY) peptide in complex with HLA-A*0201 (HLA-A2) (human)
Experiment: cell-based or functional assay

PRAME mTCRCAR (chimeric antigen receptor with an scFv from Pr20, IgG4 hinge, 4-1BB costimulatory and CD3zeta signaling domains), on human T cells
cell death of neuroblastoma cells (SK-N-SH) with CD8+ CAR T cells at 24 hours: 98%
